Source: patent publication WO2018083240A1 (dated 2018)
Where a chain is given by its changes, count along the chain named.

T1: Screening Peptide DDR1_HUMAN(788-808) (human, N-terminal Glu(Bi-PEG) (residue 1 of the letters given); C-terminal amide (-NH2))
T1 construct: The leading E stands for the printed Glu(Bi-PEG), which is not part of DDR1 788-808; also called non-phosphorylated screening peptide
T1 peptide: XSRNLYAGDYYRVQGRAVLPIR

B1: rabbit monoclonal anti-pY796-DDR1 antibody 22D9 (antibody, V domains shown)
VH: QSVEESGGRLVTPGTPLTLTCKVSGFSLSNYHMIWVRQAPGKGLEWIGIISRRGTTWYASWVKGRFTISKSSTTVDLKITSPTTEDTATYFCARGGVDSSYRDLWGPGTLVTVSS
VL: QVLTQTPSSVSAAVGGTVTINCQSNQRVANVNCLAWYQQKPGQPPKLLIYDASSLASGVPSRFSGSGSGTQFTLSISGVQCGDAATYYCQGTYATFGASAWYGDAFGGGTEVVVE
notes: Full-length rabbit IgG (150 kDa), expressed in HEK293 cells; Same variable domains as 31A5; also called clone 22D9
B2: rabbit monoclonal anti-pY796-DDR1 antibody 31A5 (antibody, V domains shown)
VH: B1 VH
VL: B1 VL
notes: Full-length rabbit IgG (150 kDa), expressed in HEK293 cells; Same variable domains as 22D9; also called clone 31A5
B3: rabbit monoclonal anti-pY796-DDR1 antibody 20G11 (antibody, V domains shown)
VH: B1 VH with S71G
VL: B1 VL with N25S
notes: Full-length rabbit IgG (150 kDa), recombinantly expressed in HEK293 cells; also called clone 20G11

Legend:
[1] = biological target: Screening Peptide DDR1_HUMAN(788-808)[pY796] (human); experiment: SPR (Biacore T200), antibody captured by goat anti-rabbit Fc, peptide as analyte, 25 C; value of Table 3 as repeated in the description
[2] = biological target: Screening Peptide DDR1_HUMAN(788-808)[pY796] (human); experiment: ELISA, biotinylated peptide on streptavidin plate, 30 ul transfection supernatant
[3] = biological target: T1, Screening Peptide DDR1_HUMAN(788-808); experiment: as above

Binder | Kd [1] [nM] | OD 405 [2] [OD 405] | OD 405 [3] [OD 405]
B1 | 0.051 | 3.12 | 0.286
B2 | – | 2.98 | 0.253
B3 | 0.038 | 3.06 | 0.313
